experiment: yeast display, Sf9 membrane polyspecificity reagent, FACS + sequencing; frameworks hold sequencing errors
In short: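 A synthetic nanobody library was expressed on Saccharomyces cerevisiae BJ5465 by galactose induction for 36–48 hours. The library was stained for 1 hour at 4 °C with 10% biotinylated, detergent-solubilized Sf9 membrane reagent and enriched with streptavidin microbeads before FACS. Low and high (top ~1%) gates were set on anti-HA fluorescence for expression and streptavidin fluorescence for reagent binding, and each polyreactivity label reflects the gate of origin.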

Question: Which “polyreactivity (PSR sort gate)” value does the source give for “QVQLVESGGGLVQAGGSLRLSCAASGITFTKYVMGWYRQAPGKERELVATIRWGASSTHYADSVKGRFRISRDNAKNTVYFQMNSLKPEDTAVYYCNADCWYGAVYWWFYGFDYWGQGTQVTVSS” here?
Answer: low polyreactivity

Question: With “QVQLVESGGGLVQAGGSLRLSCAASGITFTLYAMGWYRQSPGKERELVAAISRGGGTTYYADSVKGRFTISRDNAKNTVYLQMNSLKPEDTAVYYCATDWHSSGYWGQGTQVTVSS” as the sequence, how does the “polyreactivity (PSR sort gate)” value read?
Answer: low polyreactivity

Question: With “QVQLVESGGGLVQAGGSLRLSCAASGITFTNYAMGWYRQAPGKERELVAAISSRGGRTYYADSVKGRFTISRDNAKNTVYLQMNSLKPEDTAVYYCAASFFQVYGDDYWGQGTQVTVSS” as the sequence, how does the “polyreactivity (PSR sort gate)” value read?
Answer: high polyreactivity

Question: Which “polyreactivity (PSR sort gate)” value does the source give for “QVQLVESGGGLVQAGGSLRLSCAASGITFTPNAMGWYRQAPGTEREFVAAITYSGGSTYYADSVKGRFTISRDNAKNTVYLQMNSLKPEDTAVYYCAAVYDLLYYEAYYYWGQGTQVTVSS” here?
Answer: low polyreactivity

Question: Which “polyreactivity (PSR sort gate)” value does the source give for “QVQLVESGGGLVQAGGSLRLSCAASGITFTRYAMGWYRQAPGKEREFVAAIRRSGGNTYYADSVKGRFTISRDNAKNTVYLQMNSLKPEDTAVYYCAASPDIIGTSGEDDYWGQGSQVTVSS” here?
Answer: low polyreactivity

Question: With “QVQLVESGGGLVQAGGSLRLSCAASGITFTSYVMGWYRQAPGKERELVAAIRWSGGRTYYADSVKGRFTISRDNAKNTVYLQMNSLKPEDTAVYYCNRVTRSHVDYWGQGTQLTVSS” as the sequence, how does the “polyreactivity (PSR sort gate)” value read?
Answer: high polyreactivity

Question: For “QVQLVESGGGLVQAGGSLRLSCAASGITFTVYAMGWYRQAPGKERELVAAINSVSSTNYADSVKGRFTISRDNAKNTVYLQMNSLKPEVTAVYYCAASYRKLPDKKRYGYWGQGTKVTVSS”, which “polyreactivity (PSR sort gate)” value is on record?
Answer: high polyreactivity

Question: Which “polyreactivity (PSR sort gate)” value does the source give for “QVQLVESGGGLVQAGGSLRLSCAASGITFTVYAMGWYRQAPGKERELVAAITSTGSTNYADSVKGRFTISRDNAKNTVYLQMNSLKPEDTAVYYCAARRSHQYRGPHFNYWGQGTQVTVSS” here?
Answer: low polyreactivity

Question: Which “polyreactivity (PSR sort gate)” value does the source give for “QVQLVESGGGLVQAGGSLRLSCAASGITFVANAMGWYRQAPGKERELVAAITRGGSTNYADSVKGRFTISRDNAKNTVYLQMNSLKPEDTAVYYCAADYVTRIGRYDYWGQGSQVTVSS” here?
Answer: low polyreactivity

Question: For “QVQLVESGGGLVQAGGSLRLSCAASGITFVFYAMGWYRQAPGKARELVATISYRGTSTYYADSVKGRFTISRDNAKNTVYLQMNSLKPEDTAVSYCAGDTYIYYKTGYGYWGQGTQVTVSS”, which “polyreactivity (PSR sort gate)” value is on record?
Answer: low polyreactivity

Question: With “QVQLVESGGGLVQAGGSLRLSCAASGITFVFYAMGWYRQAPGKERELVATITWRTTRTFYADSVKRRFTISRDNAKNTVYLQMNSLKPEDTAVYYCAAGVNSTTRINDYWGQGTQVTVSS” as the sequence, how does the “polyreactivity (PSR sort gate)” value read?
Answer: low polyreactivity

Question: For “QVQLVESGGGLVQAGGSLRLSCAASGITFVKNAMGWYRQAPGKERELVARIRIGGSTSYADSVKGRFTISRDNAKNTVYLQMISLKPEDTAVYYCARYAGRLSYRYEYWGQGTQVTVSS”, which “polyreactivity (PSR sort gate)” value is on record?
Answer: high polyreactivity

Question: Which “polyreactivity (PSR sort gate)” value does the source give for “QVQLVESGGGLVQAGGSLRLSCAASGITFVKNAMGWYRQAPGKERELVARIRIGGSTSYADSVKGRFTISRDNAKNTVYLQMNSLKPEDPAVYYCARYAGRLSYRYEFWGQGTQVTLSS” here?
Answer: high polyreactivity

Question: With “QVQLVESGGGLVQAGGSLRLSCAASGITFVNYAMGWYRQAPGKERELVAAISNGGSTYYADSVKGRFTISRDNAKNTVYLQMNSLKPEDTAVYYCAAKPVQKFRPRYGYWGQGTQVTVSS” as the sequence, how does the “polyreactivity (PSR sort gate)” value read?
Answer: high polyreactivity

Question: Which “polyreactivity (PSR sort gate)” value does the source give for “QVQLVESGGGLVQAGGSLRLSCAASGITFVRNAMGWYRQAPGKEREFVAAISGSGVSTYADSVKGRFTISRDNAKNTVDEQMISLKPEDTAVYYCARDFPWSYAWYDYWGQGTLVTVSS” here?
Answer: low polyreactivity

Question: With “QVQLVESGGGLVQAGGSLRLSCAASGITFVSYTMGWYRQAPGTEREFVAAITWNVASTYYADSVKGRFTISRDNAKNTVYLQMNSLKPEDTAVYYCAAGYDWSVITIYDYWGQGTQVTVSS” as the sequence, how does the “polyreactivity (PSR sort gate)” value read?
Answer: high polyreactivity

Question: With “QVQLVESGGGLVQAGGSLRLSCAASGITFVTYAMGWYRQAPGKERELVAAISRSGGNTYYADSVKGRFTISRDNAKNTVYLQMNSLKPEDTAVYYCAAGGHRERDYWGQGTQVTVSS” as the sequence, how does the “polyreactivity (PSR sort gate)” value read?
Answer: high polyreactivity

Question: For “QVQLVESGGGLVQAGGSLRLSCAASGITFVWNAMGWYRQAPGKERELVATISRGGVRTYYADSVKGRFTISRDNAKNTVYLQMNSLKPEDTAVYYCNVDETGVLVAYSFDYWGQGTQVTVSS”, which “polyreactivity (PSR sort gate)” value is on record?
Answer: low polyreactivity

Question: With “QVQLVESGGGLVQAGGSLRLSCAASGITFVYYAMGWYRQAPGKERELVAAISVSGGSTYYADSVKGRFTISRDNAKNTVYLQMNSLKPEDTAVYYCAADGYSGIGVREGYWGQGTQVTVSS” as the sequence, how does the “polyreactivity (PSR sort gate)” value read?
Answer: high polyreactivity

Question: With “QVQLVESGGGLVQAGGSLRLSCAASGITFWHNTMGWYRQAPGKERELVAAISWTGGRTYYADSVKGRFTISRDNAKNTVYLQMNSLKPEDTAVYYCAADFSWTPSGNYDSWGQGTQVTVSS” as the sequence, how does the “polyreactivity (PSR sort gate)” value read?
Answer: low polyreactivity

Question: For “QVQLVESGGGLVQAGGSLRLSCAASGITFWKYAMGWYRQAPGKERELVAAISGRGGSTYYADSVKGRFTISRDNAKNTVYLQMNSLKPEDTAVYYCAVGYRGWDGYWGQGTQVTVSS”, which “polyreactivity (PSR sort gate)” value is on record?
Answer: high polyreactivity

Question: With “QVQLVESGGGLVQAGGSLRLSCAASGITFWTYAMGWYRQAPGKERELVAAISKSGGSTYYADSVKGRFTISRDNAKYNVYLQLKSLKPEDTAVYYCAAKGLRYRDIDYDYWGQGTQVTVSW” as the sequence, how does the “polyreactivity (PSR sort gate)” value read?
Answer: low polyreactivity

Question: Which “polyreactivity (PSR sort gate)” value does the source give for “QVQLVESGGGLVQAGGSLRLSCAASGITFWYYAMGWSRQEPGKERELVAGISRSDSNTYYADSVKGRFTISRDNAKNTLYLQMNSLKPEDTAVYYCSAYYYRRRYGGKYDYWGQGTQVTVSS” here?
Answer: high polyreactivity

Question: Which “polyreactivity (PSR sort gate)” value does the source give for “QVQLVESGGGLVQAGGSLRLSCAASGITFYDKAMGWYREAPGKERELVAGISYDGDSTYADSVKGRFTISRDNAKNTVYLQMNSLKPEDTAVYYCAALGPYDWLWAGDYWGQGTQVTVSS” here?
Answer: low polyreactivity

Question: For “QVQLVESGGGLVQAGGSLRLSCAASGITFYDNAMGWYRPAPGKERELVAGISYDGDSTYADSVKGRFTISRDNAKNTVYLQMNSLKPEDTAVYYCAALGPYDWLWAGDYWGQGTQVTVSS”, which “polyreactivity (PSR sort gate)” value is on record?
Answer: low polyreactivity

Question: Which “polyreactivity (PSR sort gate)” value does the source give for “QVQLVESGGGLVQAGGSLRLSCAASGITFYDNVMGWYRQAAGKERELVAAITSGGSTNYADSVKGRFTISRDNAKNTVYLQMNSLKPEDTAVYYCAAQPRVDYEFPYRYGYWGQGTQVTVSS” here?
Answer: low polyreactivity

Question: With “QVQLVESGGGLVQAGGSLRLSCAASGITFYDNVMGWYRQAPGKERELVAAITDSGGSTYYADSVKGRFTISRDNAKNTVYLQMNSLKPEDTAVYYCNADVNAHWWWYIEEYWGQGTQVTVSS” as the sequence, how does the “polyreactivity (PSR sort gate)” value read?
Answer: low polyreactivity

Question: Which “polyreactivity (PSR sort gate)” value does the source give for “QVQLVESGGGLVQAGGSLRLSCAASGITFYDYAMGWYRQAPGKEREFFARITASGARTYYADSVKGRFTISRDNAKNTVYLQMNSLKPEDTAVYYCAVRGGRPSRRHYDKYDYWGQGTQVTVSS” here?
Answer: low polyreactivity

Question: With “QVQLVESGGGLVQAGGSLRLSCAASGITFYEYAMGLYRKAPGKERELVAAISDRGGSTYYADSVKGRFTISRDNSKNTVYLQLNSLKPEDTAVYYCAGRNTPAQLDYWGQGTQVTVSS” as the sequence, how does the “polyreactivity (PSR sort gate)” value read?
Answer: low polyreactivity

Question: For “QVQLVESGGGLVQAGGSLRLSCAASGITFYEYTMGWYRQAPGKETELVAVIRKTGGSTYYADSVKGRFTISRDNAKNTVYLQMNSLKPEDTAVYYCNARYGGSGRVPRSYDYWGQGTQVTVSS”, which “polyreactivity (PSR sort gate)” value is on record?
Answer: high polyreactivity

Question: With “QVQLVESGGGLVQAGGSLRLSCAASGITFYFYAMGCERQAPGKERELVAAINRSGSSTYYADSVKGRFTISRDNAKTSVYLQMNSLNPEDTAVYYFAAGWYPWAYEDWGQGTQVTVTS” as the sequence, how does the “polyreactivity (PSR sort gate)” value read?
Answer: high polyreactivity

Question: With “QVQLVESGGGLVQAGGSLRLSCAASGITFYGNAMGWYRQAPGKERELVAAITASGGRTYYADSVKGRFTISRDNAKNTVYLQMNSLKPEDTAVYYCAAKKATVVYRMEYWGQGTQVTVSS” as the sequence, how does the “polyreactivity (PSR sort gate)” value read?
Answer: high polyreactivity

Question: Which “polyreactivity (PSR sort gate)” value does the source give for “QVQLVESGGGLVQAGGSLRLSCAASGITFYGNAMGWYRQAPGKERELVANTYYADSVKGRFTISRDNAKNTVYLQMNSLKPEDTAVYYCNVLFADKSDYWGQGTQVTVSS” here?
Answer: low polyreactivity

Question: For “QVQLVESGGGLVQAGGSLRLSCAASGITFYGYAMGWYRQAPGKERELVAAITSGGSTYYADSVKGRFTISRDNAKNTVYLQMNSLKPEDTAVYYCARYYWIRVGRYYRYEYWGQGTQVTVSS”, which “polyreactivity (PSR sort gate)” value is on record?
Answer: low polyreactivity

Question: For “QVQLVESGGGLVQAGGSLRLSCAASGITFYGYAMGWYRQAPGKERELVARISRGGRTYYADSVKGRFTISRDNAKNTVYLQMNSLKPEDTAVYYCAAGKYWYAGKYLYDYWGQGTQVTVSS”, which “polyreactivity (PSR sort gate)” value is on record?
Answer: high polyreactivity

Question: For “QVQLVESGGGLVQAGGSLRLSCAASGITFYGYAMGWYRQEPGKERELVATISSGGGTNYADSVKGRFTISRDNAKNTVYLQMNSLKPEDTAVYYCATDLSTVDYNYWGQGTQVTVSS”, which “polyreactivity (PSR sort gate)” value is on record?
Answer: low polyreactivity

Question: Which “polyreactivity (PSR sort gate)” value does the source give for “QVQLVESGGGLVQAGGSLRLSCAASGITFYGYVMGWYRQAPGKERELVAAISTSGGSTYYADSVKGRFTISRDNAKNTVYLQMNSLKPEDTAVYYCAKYLYPFYPDYDYWGQGTQVTVSS” here?
Answer: high polyreactivity

Question: For “QVQLVESGGGLVQAGGSLRLSCAASGITFYHYAMGWYRQAPGKERELVAAISVSGGRTYYADSVKGRFTISRDNAKITVYLQMNSLKPEDTAVYYCAKVSQVRGFYYWGQGTQVTVSS”, which “polyreactivity (PSR sort gate)” value is on record?
Answer: high polyreactivity

Question: With “QVQLVESGGGLVQAGGSLRLSCAASGITFYIYAMGWSRQAPGKEREFVASITWRGGSTYYADSVKGRFTISRDNAKNTVYLQMNSLKPEDTAVYYCNAEYSSSRYWYYDYWGQGTQVTVSS” as the sequence, how does the “polyreactivity (PSR sort gate)” value read?
Answer: high polyreactivity

Question: For “QVQLVESGGGLVQAGGSLRLSCAASGITFYIYAMGWYRQAPGKEREFVASITWRGGSTYYADSVKGRFTISRDNAKNTVYLQMNSLKPEDTAVYYCNAEYSSSRYWYYDYWGQGTQVTVSS”, which “polyreactivity (PSR sort gate)” value is on record?
Answer: high polyreactivity

Question: Which “polyreactivity (PSR sort gate)” value does the source give for “QVQLVESGGGLVQAGGSLRLSCAASGITFYIYAMGWYRQAPGKERELVAAISDDGSTHYADSVKGRFTISRDNAKNTVYLHMNSLKPEDTAVYYCNADYYWFFDFFDYDYWGQGTQVTVSS” here?
Answer: low polyreactivity

Reference: the nanobody polyreactivity screen of Harvey et al. (2022)
